Laboratory results published in patent US20220396758.

What was measured:
[1] = tested on: substrate protein S1 (single N-terminal Smt3 domain, 65-amino-acid charged flexible tail, C-terminal 11 amino acid ssrA tag)
[2] = tested on: substrate protein S2-35 (two Smt3 domains separated by a 35 amino acid linker, charged tail, C-terminal ssrA tag)
[3] = tested on: substrate protein S2-148 (two Smt3 domains separated by an extended 148 amino acid linker, charged tail, C-terminal ssrA tag)

covalently-linked trimer of an N-terminal truncated ClpX variant (ClpX-ΔN3)
ClpX-dependent ionic current ramp (ramping state iii), average current [1]: a progressive downward current ramp reaching an average of ~10 pA with a median duration of 4.3 seconds | ClpX-dependent ionic current ramp (ramping state iii), median duration [1]: a progressive downward current ramp reaching an average of ~10 pA with a median duration of 4.3 seconds | ClpX-dependent ionic current ramp (ramping state iii), number of events [1]: This current ramp was observed with protein S1 a total of 45 times over ~5.5 hours of experimentation when ClpX and ATP were present; in contrast, the ramp was never observed following state ii when ClpX and ATP were absent from the trans solution over ~2.3 hours of experimentation | second ramping state vi, ionic current [2]: This was followed by a ~8.5 pA state (FIG. 2C, vi) that closely resembled ramping state iii | translocation events that included ramping state iii, number of events [2]: Translocation events that included ramping state iii were observed 62 times for protein S2-35 (7.3 hours of experimentation) ... when ClpX and ATP were present. In the absence of ClpX/ATP, these ramping states were never observed for S2-35 (1.7 hours of experimentation) | translocation events that included ramping state iii, number of events [3]: Translocation events that included ramping state iii were observed ... 66 times for protein S2-148 (4.3 hours of experimentation), when ClpX and ATP were present. In the absence of ClpX/ATP, these ramping states were never observed ... for S2-148 (1.2 hours of experimentation)
